According to the DeepSol protein solubility set:

Test: soluble on expression in E. coli; label from the status in PepcDB or PDB records

| Sequence | soluble on expression in E. coli |
| --- | --- |
| GPGSMGVDLTGISKKSRVIRHHTYSTNPYIKLLIKLYKFLAKRTSSGFNKVVYQRLIKSRSNRAPISLSRIAVVMKRKAVFTAKSKAAPIAVVVGDVLDDVRMARIPAMRVCALRFSKSARQSIVAAGGECLTFDQLAMIAPTGKNTYLLRGRKSGRESVRHFGASGVPGSHSKPYATNRGKETKRGRRTGRSYKRKAFRHV | soluble |
| MSGIIATYLIHDDSHNLEKKAEQIALGLTIGSWTHLPHLLQEQLKQHKGNVIHVEELAEHEHTNSYLRKKVKRGIIKIEYPLLNFSPDLPAILTTTFGKLSLDGEVKLIDLTFSDELKKHFPGPKFGIDGIRNLLQVHDRPLLMSIFKGMIGRNIGYLKTQLRDQAIGGVDIVKDDEILFENALTPLTKRIVSGKEVLQSVYETYGHKTLYAVNLTGRTFDLKENAKRAVQAGADILLFNVFAYGLDVLQSLAEDDEIPVPIMAHPAVSGAYSASKLYGVSSPLLLGKLLRYAGADFSLFPSPYGSVALEKEEALAISKYLTEDDASFKKSFSVPSAGIHPGFVPFIVRDFGKDVVINAGGGIHGHPNGAQGGGKAFRTAIDATLQNKPLHEVDDINLHSALQIWGNPSYEVKL | soluble |
| MGSDKIHHHHHHMYYGSIITVLSSDKNKLTGIAEKLGKLHETAKTKIYYRKKGEYIRSILLTTEYPEKIIDLAEALSLSSTAILYIPETLTWMDGELALLIDSLNTHNKIVISNLDQGKINNILGSLSSFTKFDLYNDIPDLSETEEEDKGIVYVDRVFTVKGVGTVVTGFSFTNVEVHEKLVALPYNKEVEIKSIQVLDEDQKSVSTGVRIGFALKNVKEEEIEDLLYLVKPNVKVVKEIEGQITNYKWSTINQGQNHIIVKGHGIAANIKVDNQKAKIMSSVPIPIVDNRILVLNVNVRQGKPRVAGYISL | not soluble |
| MQDDPRYRVEVEVSPRFLAHQSTPEEGRYAFAYSIRIQNAGAVPARLIARHWKITDANGRTEQVDGEGVVGEQPRLRPGEAFHYTSGVLLETEQGQMQGYYDMVADDGTEFTAPIAAFVLSVPRTLHLEHHHHHH | soluble |
| MAHHHHHHMSRTLTTTQPSVASSPASSSSGSTHQRPSADQLAETVHQMDEENALEFVSIDATSRDQVFHFLHDHPDATAVVNAVGLLTRNYEDARQVNGDVMTNIAAGVFHPKLAQSVQKVVYVSAEPYNLYSRRILGSKHLLKGYFHGKRIGEKAVLENLGNKGVVLRPSFIYGTRHVLVASAMNPDAVSTLSLPLGWIGLPLDKLLTAIGGGKLLMPPVCVDVVAEAAVRACAWANQPGKDIHGICDVYRMRDICNAVDPSLHEDRNGTVTASTASKEASTVKNDR | not soluble |
| MNDDRATAFNALKNKTVCVQGDGNSRQFYHALVEILSNHSSAIPVNKNGNDFCNAPFAQCPQDTYYFDLVDKSDNLSVKLYWRWAPEFSDIECPMKVPSGFTPGSNYSFPSGPDTLSCDINIMDAGQWELFEKDANVTTAGYSQGVSNLSKCFSSDKSAKYFWIAAYALTPEQLQIHLPYNNTDVERINEVATQGLNSTACVLNGYDVTVNAFNDTKEATTDGIHYLGWINEQVVQLFFNAVTNSSAPTVPSSNVSVTSPNVQLGQVPNLNPSTTNSFLPVQTIVTVPSSSATSASSGLNFGGSSQGGGSGIPQL | not soluble |
| MTSDATHEEAVSLLQELGLKEYEAKCFVGLSRMSSGTAKGLSEVTDVPRTRVYDAVRILEAKGLVEVQHSSPQQFRAVPLSEATETLRDQYEERIERLQSALREMGRIEADNDEAELQEVWSLSGSDAIENRAAAISADATDEVVLVIGSEAVLTEPLIKQLNSLNPNADLIVGTGSASIRDRVEQEIPRATAFLSELDWLHSEMIPEEDAAVGRLLLVDRSTMLVSSINPQTGDEQAIFATGLRNGLIVIARRLLSQGVVEMTPLEQD | not soluble |
| MEVHDSDAYKADEKEEEKAEEVELDDSDVESEEESEDEESDEDPEDGPAPRRFETFDDAKQFWAEHFEEELIPNEDLDLNCYLFNPNGEPVVPQPVKRAMNPRSLFNNQRPVQVYHQRWELLPNEEAEHWKEMWVQMRDEQREQIEEQLIEFRYSSKS | not soluble |
| MGHHHHHHSHMRRAALRLCALGKGQLTPGRGLTQGPQNPKKQGIFHIHEVRDKLREIVGASTNWRDHVKAMEERKLLHSFLAKSQDGLPPRRMKDSYIEVLLPLGSEPELREKYLTVQNTVRFGRILEDLDSLGVLICYMHNKIHSAKMSPLSIVTALVDKIDMCKKSLSPEQDIKFSGHVSWVGKTSMEVKMQMFQLHGDEFCPVLDATFVMVARDSENKG | not soluble |
| MTADANKSESLLCMDKAREAIKSGDTDKARRMLLKAKKLDPGQNIEFLTKKIDDMTNNTSSSSQTSSSRASEERSYAHDDHYDDPNLRNRKARSPVKKNGKTEPEPKQRSASRTPKLGVDYTSEQKELVERIRHCKDYYEILKIDKKASDDDIRKEYRKLALKLHPDKCRAPHATEAFKALGNAYAVLSDTDK | not soluble |
| MQLSRQDEPLYLGLAETLRDELAGYQPGDYLPAEFQLAERFSVNRHTIRRAVDELVREGSVLRRQGKGTQVLERPLIYPMQADSAYSQSLSAQGVGVEAILLLRRECQASHEDALHLGLAEHAPVIELQTLRKLDGQAVSLIFHRYSAVYHELLADYQGGSVRQYLAECGLPLSRAQSLIGARLPSREEAGLLLMPRHMPALTVLTVSCDGAGQPVELSRSVSRSDRFQYQVATAIPTR | not soluble |
| MGSDKIHHHHHHMGIMENPLIKPAALENTHQDGPHPQAEEPYYLPFGDEVSIFTQCHRRHLAVMLKGPTGCGKTRFVEHMAWRMKRPLIIVSCHDDLTAADLVGRFLIRDNATIWQDGPLTRAVRVGAICYLDEVVEARQDAVVVIHPLTDYRRVLPIDKTGELIEATPGFQLVISYNPGYQHVTKDLKPSTRQRFVALDFDFPPPEREAEIVIHESGAQPAVAYDLVALGGRIRGLADRGLAEVPSTRLLVATARLIANGIPPRLACHVALVSPLSDDPALVAAMRDLVDATLLD | not soluble |
| MTTTKANLTEFEQQLVDKAIGAMENAYCKYSNFKVGAALVCDDGEIIIGANHENASYGATICAERSAIVTALTKGHRKFKYIVVATELEAPCSPCGVCRQVLIEFGDYKVILGSSTSDQIIETTTYELLPYAFTPKSLDDHEKETEERKHHNDHNNKE | not soluble |
| MLGSSSLSIRTTDDKSLFARTMDFTMEPDSKVIIVPRNYGIRLLEKENVVINNSYAFVGMGSTDITSPVLYDGVNEKGLMGAMLYYATFATYADEPKKGTRGINPVYVISQVLGNCVTVDDVIEKLTSYTLLNEANIILGFAPPLHYTFTDASGESIVIEPDKTGITIHRKTIGVMTNSPGYEWHQTNLRAYIGVTPNPPQDIMMGDLDLTPFGQGAGGLGLPGDFTPSARFLRVAYWKKYTEKAKNETEGVTNLFHILSSVNIPKGVVLTNEGKTDYTIYTSAMCAQSKNYYFKLYDNSRISAVSLMAENLNSQDLITFEWDRKQDIKQLNQVNVMS | soluble |
| GMEGLVMNTRRALFADWRVREAMLLAFDFDLINRTLTGGAEPRIASYFSNSALGMEAGAPATGRERALLEPFAADLLPGTLDGYALPATHGASNRGNLRKAARLLSEAGWRIEDGMLEGPGGTPFAFEILLPQGADAMIAASIIYRQALTRLGISARITTVDPAQFKQRVDNQDFDMTSFLRSLTLSPGNEQLLYWSAEDKDLPGSRNLMGMESPAAEAVIRHMLATDDAEEFQASVRALDRVLTAGRYVIPMWYSR | not soluble |
| ARTVVLITGCSSGIGLHLAVRLASDPSQSFKVYATLRDLKTQGRLWEAARALACPPGSLETLQLDVRDSKSVAAARERVTEGRVDVLVCNAGLGLLGPLEALGEDAVASVLDVNVVGTVRMLQAFLPDMKRRGSGRVLVTGSVGGLMGLPFNDVYCASKFALEGLCESLAVLLLPFGVHLSLIECGPVHTAFMEKVLGSPEEVLDRTDIHTFHRFYQYLAHSKQVFREAAQNPEEVAEVFLTALRAPKPTLRYFTTERFLPLLRMRLDDPSGSNYVTAMHREVFGDVPAKAEAGAEAGGGAGPGAEDEAGRSAVGDPELGDPPAAPQ | soluble |
| GWIQELTAGHAEHTPETEEYGISSFVYKRRLPFHSTRFYRWLDQMPKNVVRAKGIVWCASHNNLALLMSQAGPSVTIEPVSYWVAALPKLEQEQVKQQEPEILEEWDPEFGDRLTQLVFIGTDLDEETITKELDQCLLTEYEFDSDWSLFEDPFKWKLNQ | not soluble |
